{
  "source": "patent US20050003401",
  "about": "“Pfu replication accessory factors and methods of use” (Stratagene, published 2005)",
  "key": {"[1]": {"target": "SSB (single-stranded DNA binding protein) (Escherichia coli, UniProt P0AGE0 P0AGE0:2-178)", "sequence (P0AGE0 2-178, one chain of several)": "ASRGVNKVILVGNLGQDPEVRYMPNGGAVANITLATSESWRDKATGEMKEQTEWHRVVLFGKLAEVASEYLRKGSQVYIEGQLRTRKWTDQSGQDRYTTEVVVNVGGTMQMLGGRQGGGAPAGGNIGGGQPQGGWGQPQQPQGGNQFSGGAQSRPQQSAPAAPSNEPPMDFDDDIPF", "assay": "EMSA; TE buffer; 95 C 10 min then 72 C 2 min", "conditions": "tags: Stratagene Perfect Match; chain copies: 4", "procedure": "(§1) 50 ng of a 38-mer oligo was incubated with E. coli SSB (lane 1), water (lane 2), or P. furiosus RFA (lanes 3-7) in TE buffer (lanes 1-3), 1×cloned Pfu buffer (lane 4), 50 mM Tris pH 8.5, 25 mM KCl, 2 mM MgCl₂ (lane 5), 50 mM Tris pH 8.5, 25 mM KCl, 5 mM MgCl₂ (lane 6), or 50 mM Tris pH 8.5, 25 mM KCl, 2 mM ZnCl₂ (lane 7). Samples were incubated at 95° C. for 10 minutes, followed by 72° C. for 2 minutes prior to loading on a 4-20% acrylamide gradient gel in 1×TBE buffer. Bands were visualized by SYBR green staining and UV illumination.\n(§2) To assess function, P. furiosus RFA was tested for single-stranded DNA binding activity in a gel shift assay (FIG. 18). […] The degree of migration of the oligo is related to the mass of the protein-DNA complex and the formation of protein multimers. E. coli SSB is known to form tetramers, but it is presently unknown whether P. furiosus RFA produces multimers as well."}, "[2]": {"target": "T1, RFA (replication factor A) (Pyrococcus furiosus)", "T1 chain": "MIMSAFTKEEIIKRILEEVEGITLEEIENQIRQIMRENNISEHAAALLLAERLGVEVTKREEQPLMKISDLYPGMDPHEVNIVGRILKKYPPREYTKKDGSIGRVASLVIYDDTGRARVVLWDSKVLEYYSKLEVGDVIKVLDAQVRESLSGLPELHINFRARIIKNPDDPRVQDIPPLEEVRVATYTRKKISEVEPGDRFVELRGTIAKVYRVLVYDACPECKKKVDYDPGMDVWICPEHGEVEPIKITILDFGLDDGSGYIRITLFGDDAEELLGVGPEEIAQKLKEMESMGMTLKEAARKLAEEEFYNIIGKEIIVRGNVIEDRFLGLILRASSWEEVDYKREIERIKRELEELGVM", "assay": "EMSA; partial shift; 95 C 10 min then 72 C 2 min", "conditions": "tags: N-terminal CBP", "procedure": "as §1, §2"}},
  "data": [
    {"binder": "GGTTTTCCCAGTCACGACGTTGTAAAACGACGGCCAGT (ssDNA)", "note": "[38-mer oligo]", "values": [
      {"measurement": "binding result", "setting": "[1]", "result": "binds"},
      {"measurement": "binding result", "setting": "[2]", "result": "binds"}
    ]}
  ]
}
